Reference: patent US20220380409A1
Ends that are not written are not given here. Tz4 = ring closure through triazole, 4-carbon linker to triazole

Target: full-length Akt2 protein (Homo sapiens (Human)) (UniProt P31751)
Experiment: affinity estimation from immunoassays capturing full-length Akt2 protein (FIG. 6D)

B1: Cy(YYTYT (SEQ ID NO:4)-Tz4) (peptide)
peptide: YYTYT
modifications: triazole (positions not given here) via Tz4; also: ring closed via triazole between non-natural alkyne and azide residues flanking the sequence, variable region only, constant region not given here
fold higher affinity than the corresponding linear peptide: 30 fold
